B1: TC-PTP: human non-receptor tyrosine PTPase, from Calbiochem (protein)
chain: MPTTIEREFEELDTQRRWQPLYLEIRNESHDYPHRVAKFPENRNRNRYRDVSPYDHSRVKLQNAENDYINASLVDIEEAQRSYILTQGPLPNTCCHFWLMVWQQKTKAVVMLNRIVEKESVKCAQYWPTDDQEMLFKETGFSVKLLSEDVKSYYTVHLLQLENINSGETRTISHFHYTTWPDFGVPESPASFLNFLFKVRESGSLNPDHGPAVIHCSAGIGRSGTFSLVDTCLVLMEKGDDINIKQVLLNMRKYRMGLIQTPDQLRFSYMAIIEGAKCIKGDSSIQKRWKELSKEDLSPAFDHSPNKIMTEKYNGNR
B2: PTPase-dead rCD45: PTPase-dead recombinant CD45, D1:C828S mutant (protein, UniProt P08575 26-1306, looked up, variant C828S)
Receptor-type …: QSPTPSPTGLTTAKMPSVPLSSDPLPTHTTAFSPASTFERENDFSETTTSLSPDNTSTQVSPDSLDNASAFNTTGVSSVQTPHLPTHADSQTPSAGTDTQTFSGSAANAKLNPTPGSNAISDVPGERSTASTFPTDPVSPLTTTLSLAHHSSAALPARTSNTTITANTSDAYLNASETTTLSPSGSAVISTTTIATTPSKPTCDEKYANITVDYLYNKETKLFTAKLNVNENVECGNNTCTNNEVHNLTECKNASVSISHNSCTAPDKTLILDVPPGVEKFQLHDCTQVEKADTTICLKWKNIETFTCDTQNITYRFQCGNMIFDNKEIKLENLEPEHEYKCDSEILYNNHKFTNASKIIKTDFGSPGEPQIIFCRSEAAHQGVITWNPPQRSFHNFTLCYIKETEKDCLNLDKNLIKYDLQNLKPYTKYVLSLHAYIIAKVQRNGSAAMCHFTTKSAPPSQVWNMTVSMTSDNSMHVKCRPPRDRNGPHERYHLEVEAGNTLVRNESHKNCDFRVKDLQYSTDYTFKAYFHNGDYPGEPFILHHSTSYNSKALIAFLAFLIIVTSIALLVVLYKIYDLHKKRSCNLDEQQELVERDDEKQLMNVEPIHADILLETYKRKIADEGRLFLAEFQSIPRVFSKFPIKEARKPFNQNKNRYVDILPYDYNRVELSEINGDAGSNYINASYIDGFKEPRKYIAAQGPRDETVDDFWRMIWEQKATVIVMVTRCEEGNRNKCAEYWPSMEEGTRAFGDVVVKINQHKRCPDYIIQKLNIVNKKEKATGREVTHIQFTSWPDHGVPEDPHLLLKLRRRVNAFSNFFSGPIVVHSSAGVGRTGTYIGIDAMLEGLEAENKVDVYGYVVKLRRQRCLMVQVEAQYILIHQALVEYNQFGETEVNLSELHPYLHNMKKRDPPSEPSPLEAEFQRLPSYRSWRTQHIGNQEENKSKNRNSNVIPYDYNRVPLKHELEMSKESEHDSDESSDDDSDSEEPSKYINASFIMSYWKPEVMIAAQGPLKETIGDFWQMIFQRKVKVIVMLTELKHGDQEICAQYWGEGKQTYGDIEVDLKDTDKSSTYTLRVFELRHSKRKDSRTVYQYQYTNWSVEQLPAEPKELISMIQVVKQKLPQKNSSEGNKHHKSTPLLIHCRDGSQQTGIFCALLNLLESAETEEVVDIFQVVKALRKARPGMVSTFEQYQFLYDVIASTYPAQNGQVKKNNHQEDKIEFDNEVDKVKQDANCVNPLGAPEKLPEAKEQAEGSEPTSGTEGPEHSVNGPASPALNQGS
B3: lambda PTPase: bacterial lambda PTPase, from Calbiochem (protein)
chain: MRYYEKIDGSKYRNIWVVGDLHGCYTNLMNKLDTIGFDNKKDLLISVGDLVDRGAENVECLELITFPWFRAVRGNHEQMMIDGLSERGNVNHWLLNGGGWFFNLDYDKEILAKALAHKADELPLIIELVSKDKKYVICHADYPFDEYEFGKPVDHQQVIWNRERISNSQNGIVKEIKGADTFIFGHTPAVKPLKFANQMYIDTGAVFCGNLTLIQVQGEGA

Tested on: JAK2
Assay: in vitro tyrosine phosphatase assay, substrate JAK2
Format: biochemical, mouse
Settings: 30° C., 20 min
Description: For tyrosine phosphatase assays, immunoprecipitated Lyn, JAKs or STATs from lysates of 10^7 BMMCs (for Lyn, JAK1, JAK2, STAT3 and STAT5) or macrophages (for Tyk2) were washed in lysis buffer and phosphatase reaction buffer [Felberg et al., J. Biol. Chem. 273:17839-17845, 1998]. The amounts of Lyn and JAK2 in the immunoprecipitates used in FIG. 3A were 72 ng and 48 ng, respectively, as determined by silver staining. Recombinant CD45 was added to substrates in the presence or absence of 0.1 mM Na3 VO4 followed by incubation at 30° C. for 20 min. Tyrosine phosphorylation was monitored by immunoblotting with phosphotyrosine-specific antibodies. The extent of tyrosine phosphorylation and amount of substrates were determined by quantifying the intensities of the immunoblots with NIH Image 1.61 software. Kinase activity in anti-Lyn or anti-JAK immunoprecipitates was assessed by an in vitro kinase assay with Raytide (Oncogen Science) as a substrate or using authophosphorylation [Lui et al., Genes Dev. 13:786-791, 1999]. In vitro binding assays were performed as described [Felberg et al., J. Biol. Chem. 273:17839-17845, 1998], using 1 μg of soluble GST, GST-CD45-D2, or GST-PTPase-dead CD45 (D1:C828S). EMSAs were as described [Charurvedi et al., Mol. Cell. Biol. 17:3295-3304, 1997]. The sequences of the EMSA probes were: STAT3, 5′-[…]-3′ (SEQ ID NO: 1); STAT3 mutant, 5′-[…]-3′ (SEQ ID NO: 2).
To determine whether CD45 could directly dephosphorylate JAKs and/or STATs, phosphatase assays were used in in vitro studies with recombinant CD45. The rCD45 employed contained the intracellular dual PTPase domains with a relative molecular mas of 97,000 (Mr 97K) (the catalytic D1 and the non-catalytic D2 domains) of CD45 but lacked its extracellular regions. […] Phosphorylation was examined with anti-phosphoryrosine, anti-phospho-Tyr 705 STAT3 (P-Y705-STAT3), and anti-phospho-Try 1007/Try 1008 JAK2 (P-Y1007/1008-JAK2). Assays were performed with 10U (for JAK2) or 90U (for STAT3) of rCD45. […]

Dephosphorylation of JAK2, did not dephosphorylate JAK2:
B1
B2
B3
